Biological target: Soc-SpyCatcher fusion protein (displayed on T4 phage: T4-SpyCatcher phage) (bacteriophage T4)
Assay: co-sedimentation

SUMO-RBD-SpyTag fusion protein, refolded (from UniProt P0DTC2 319-545) (domain or fragment)
copies per capsid (rRBD molecules per capsid): 300

Reference: paper PMC8442874
